Source: article PMC8961534, “Interaction with the Assembly Chaperone Ump1 Promotes Incorporation of the β7 Subunit into Half-Proteasome Precursor Complexes Driving Their Dimerization” (Biomolecules, 2022)
Blank lines part the entries; values can stand above or below the molecule they belong to.

Assays:
[1] = biological target: ^17–148Ump1-6His (S. cerevisiae) (UniProt P38293); assay: fluorescence microscopy-based on-bead binding assay; Ump1-6His or ^17–148Ump1-6His from E. coli extracts bound to Ni-NTA beads and washed (20 mM imidazole); extracts with mNeonGreen fusion proteins, adjusted by fluorescence, added 1 h, 4 °C; beads imaged, quantified with Fiji (n = 5), empty vector background subtracted
[2] = biological target: T1, β7-∆CTE (β7 without C-terminal extension), untagged (S. cerevisiae, UniProt P30657 1-247); assay: pull-down; native extracts of E. coli expressing Ump1-6His incubated with Ni-NTA resin, washed, then incubated with purified untagged β7 versions; elution with imidazole, anti-β7 and anti-Ump1 Western blotting, LI-COR quantification (n = 3); details: both partners purified
T1 construct: β7/Pre4, S. cerevisiae, C-terminal extension (CTE, the last 19 residues) deleted; propeptide present; source: E. coli, purified
T1 sequence (looked up): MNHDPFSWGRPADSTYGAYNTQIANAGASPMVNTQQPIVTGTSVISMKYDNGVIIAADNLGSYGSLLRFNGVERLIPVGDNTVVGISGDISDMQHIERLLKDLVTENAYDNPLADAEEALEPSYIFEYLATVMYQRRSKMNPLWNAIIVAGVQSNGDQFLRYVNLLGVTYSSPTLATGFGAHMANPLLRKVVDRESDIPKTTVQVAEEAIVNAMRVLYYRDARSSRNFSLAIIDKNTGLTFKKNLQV

reduction in binding efficiency against full-length Ump1 [1]: 50%
Molecule: full-length β7 (^1–266β7) fused to mNeonGreen and 2HA (from UniProt P30657 1-266) (natural protein)

binding result [2]: binds
B1: full-length Ump1-6His (natural protein, S. cerevisiae, UniProt P38293 1-148, looked up)
chain: MNIVPQDTFKSQVSTDQDKSVLSSAVPSLPDTLRQQEGGAVPLSTQLNDRHPLESTLKNWETTQRQRQMEQYRQIFGIAEPMKRTMEMEIVNRTDFNPLSTNGSIHRDILLNKECSIDWEDVYPGTGLQASTMVGDDVHSKIEKQLGI
notes: source: E. coli; not shown: 6His, C-terminal, kept
